# Measurements: IntAct's records for PubMed 27150041
# B1: Smu-2 suppressor of mec-8 and unc-52 protein (Caenorhabditis elegans), Q9N4U5 (parent)
# chain: MADNPTNLRNADFRKLLTSARSDRPAVSAFAKPADPKTGDDKPASFKHKHLKPAKFKKPQAAAHGKAKKEKTEADEDEAALKNILKNYRDRAAERRKQGDEKEDPSKLTAAYRAVPGDARSAQDQADLRKQAILESKYLGGDLEHTHLVKGLDYSLLNKVRSEIDKSDDDDDDDIDTAFDEKVTSSSSSSKPSEASLLAQELAQSHSENRMVRSLHRVLFKNEVPLHNQLFAKGRMAYVVELEDEETDIPTTLLRSLHDLPRAESAQSIQANNLIILKLSHVLSHLRAEPKKKKKEEFRVQLGSRDAPGAAAAAPGAKGDSIYDDLDDYVPSRKSRDSRDAGRRGSRRDRSRDRSRDRDRDRDRDNRDRYFEKSANSRREEEQNRREQQRERERAEQERRREREKEREQEKAKEREKKRKELEESSGYDECYPGGLVEMGGAWDSDEEADYSKMDAGPKKNQAVNRWDFDTEEEYASYMEGREALPKAAYQYGVKNGEGGRKNKKQSAVSDAKRLDRELNEINKIMDKRKAGGDGAGGGGDYKKPKY
# Variants of: B1
# Conditions: with smu1_caeel smu-1, G5EEG7
# Sequence of smu1_caeel smu-1, G5EEG7 (G5EEG7 whole entry): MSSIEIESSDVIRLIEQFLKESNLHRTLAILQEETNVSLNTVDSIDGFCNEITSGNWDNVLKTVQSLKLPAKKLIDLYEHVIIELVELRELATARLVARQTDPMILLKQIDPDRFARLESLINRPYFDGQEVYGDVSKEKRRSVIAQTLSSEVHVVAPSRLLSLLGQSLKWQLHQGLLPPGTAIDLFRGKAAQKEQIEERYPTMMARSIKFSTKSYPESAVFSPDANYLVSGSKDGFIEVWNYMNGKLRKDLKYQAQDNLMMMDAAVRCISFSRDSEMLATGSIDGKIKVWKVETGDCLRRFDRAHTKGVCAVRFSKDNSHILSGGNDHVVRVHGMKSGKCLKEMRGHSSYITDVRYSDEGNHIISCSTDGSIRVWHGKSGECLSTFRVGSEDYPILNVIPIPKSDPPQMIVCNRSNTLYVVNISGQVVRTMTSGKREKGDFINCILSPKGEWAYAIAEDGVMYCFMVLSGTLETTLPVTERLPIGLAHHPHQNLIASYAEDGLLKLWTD
row,effect of a mutation on the interaction,Variant
1,disrupting interaction strength,MADNPTNLRNADFRKLLTSARSDRPAVSAFAKPADPKTGDDKPASFKHKHLKPAKFKKPQAAAHGKAKKEKTEADEDEAALKNILKNYRDRAAERRKQGDEKEDPSKLTAAYRAVPGDARSAQDQADLRKQAILESKYLGGDLEHTHLVKGLDYSLLNKVRSEIDKSDDDDDDDIDTAFDEKVTSSSSSSKPSEASLLAQELAQSHSENRMVRSLHRVLRKNEVPLHNQLFAKGRMAYVVELEDEETDIPTTLLRSLHDLPRAESAQSIQANNLIILKLSHVLSHLRAEPKKKKKEEFRVQLGSRDAPGAAAAAPGAKGDSIYDDLDDYVPSRKSRDSRDAGRRGSRRDRSRDRSRDRDRDRDRDNRDRYFEKSANSRREEEQNRREQQRERERAEQERRREREKEREQEKAKEREKKRKELEESSGYDECYPGGLVEMGGAWDSDEEADYSKMDAGPKKNQAVNRWDFDTEEEYASYMEGREALPKAAYQYGVKNGEGGRKNKKQSAVSDAKRLDRELNEINKIMDKRKAGGDGAGGGGDYKKPKY [F220R]
2,disrupting interaction strength,MADNPTNLRNADFRKLLTSARSDRPAVSAFAKPADPKTGDDKPASFKHKHLKPAKFKKPQAAAHGKAKKEKTEADEDEAALKNILKNYRDRAAERRKQGDEKEDPSKLTAAYRAVPGDARSAQDQADLRKQAILESKYLGGDLEHTHLVKGLDYSLLNKVRSEIDKSDDDDDDDIDTAFDEKVTSSSSSSKPSEASLLAQELAQSHSENRMRRSLHRVLFKNEVPLHNQLFAKGRMAYVVELEDEETDIPTTLLRSLHDLPRAESAQSIQANNLIILKLSHVLSHLRAEPKKKKKEEFRVQLGSRDAPGAAAAAPGAKGDSIYDDLDDYVPSRKSRDSRDAGRRGSRRDRSRDRSRDRDRDRDRDNRDRYFEKSANSRREEEQNRREQQRERERAEQERRREREKEREQEKAKEREKKRKELEESSGYDECYPGGLVEMGGAWDSDEEADYSKMDAGPKKNQAVNRWDFDTEEEYASYMEGREALPKAAYQYGVKNGEGGRKNKKQSAVSDAKRLDRELNEINKIMDKRKAGGDGAGGGGDYKKPKY [V212R]
